# Experimental data from paper PMC3002993.
# Experiments:
# Assay in all cases: co-immunoprecipitation (HA-specific IP), Western blot densitometry
# [1] = molecular target: envelope glycoprotein E2 of JFH1 (UniProt Q99IB8); conditions: harvested 72 h later, two independent experiments, read off a plot
# [2] = molecular target: nonstructural protein 3 (NS3) of JFH1 (UniProt Q99IB8); conditions: Huh7.5 cells transfected with full-length genome, harvested 72 h later; two independent experiments; read off a plot
# [3] = molecular target: nonstructural protein 5A (NS5A) of JFH1mut4-6 (UniProt Q99IB8); conditions: Huh7.5 cells transfected with full-length genome, harvested 72 h later; two independent experiments; read off a plot
# [4] = molecular target: p7 of JFH1 (UniProt Q99IB8); conditions: Huh7.5 cells transfected with full-length genome, harvested 72 h later; two independent experiments; read off a plot
# [5] = molecular target: E2 V341A of JFH1; conditions: F77A-E2 genome; Huh7.5 cells, harvested 72 h later; two independent experiments; read off a plot
# [6] = molecular target: NS3 Q221L of JFH1; conditions: W35F-NS3 genome; Huh7.5 cells, harvested 72 h later; two independent experiments; read off a plot
substance,measurement,setting,value
HA- and Flag-tagged NS2 of JFH1mut4-6 (HAF-NS2) (from UniProt Q99IB8) CT1.h,percent of parent,[1]; Huh7.5 cells transfected with full-length genome,30%
same,percent of parent,"[1]; genome also carries the pseudoreversion p7-E3D (CT1.h-p7), Huh7.5 cells",84%
same,percent of parent,[2],26%
same,percent of parent,[3],56%
same,percent of parent,[4],23%
m1; m2 NS2:F77A; E2:V341A,percent of parent,[5],89%
m1; m4 NS2:W35F; NS3:Q221L,percent of parent,[6],52%
